T1: FcγRIIa type R extracellular domain with C-terminal His tag (human, UniProt P12318 34-217)
T1 chain: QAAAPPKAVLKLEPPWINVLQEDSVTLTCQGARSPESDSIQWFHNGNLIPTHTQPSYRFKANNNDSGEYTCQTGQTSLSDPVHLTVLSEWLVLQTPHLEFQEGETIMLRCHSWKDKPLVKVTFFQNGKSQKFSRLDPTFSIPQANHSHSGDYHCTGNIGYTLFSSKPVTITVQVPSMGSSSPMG

T2: FcγRIIb extracellular domain with C-terminal His tag (human, UniProt P31994 43-217)
T2 construct: extracellular domain; For crystallography it was expressed with kifunensine and trimmed with Endo F1; also called FcgRIIb; FcγRIIb extracellular region; not shown: His tag attached to the C terminus
T2 sequence (looked up): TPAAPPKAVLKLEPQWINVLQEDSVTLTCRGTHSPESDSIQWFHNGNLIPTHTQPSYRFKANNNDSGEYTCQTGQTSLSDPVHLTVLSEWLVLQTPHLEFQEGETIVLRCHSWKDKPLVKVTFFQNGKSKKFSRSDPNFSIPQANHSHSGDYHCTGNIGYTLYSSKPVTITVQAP


Columns and labels:
[1] = biological target: T1, FcγRIIa type R extracellular domain …; assay: SPR binding amount, relative to IL6R-F652/IL6R-L
[2] = biological target: T2, FcγRIIb extracellular domain with …; assay: SPR binding amount, relative to IL6R-F652/IL6R-L
[3] = biological target: T2, FcγRIIb extracellular domain with …; assay: SPR binding amounts, FcgRIIb divided by FcgRIIaR
[4] = biological target: T2, FcγRIIb extracellular domain with …; assay: SPR binding amount, relative to GpH7-AP001/GpH7-BF648/GpL16-k0

Binder	relative binding activity to FcγRIIaR (IL6R-F652/IL6R-L = 100) [1]	relative binding activity to FcγRIIb (IL6R-F652/IL6R-L = 100) [2]	amount binding to FcgRIIb/amount binding to FcgRIIaR [3]	binding amount to FcgRIIb when that of GpH7-AP001/GpH7-BF648 is defined as 100 [4]
IL6R-PD079/IL6R-L (antibody, human IgG1, kappa, PD variant; alterations introduced into IL6R-F11) heavy: QVQLQESGPGLVKPSETLSLTCAVSGHSISHDHAWSWVRQPPGEGLEWIGFISYSGITNYNPSLQGRVTISRDNSKNTLYLQMNSLRAEDTAVYYCARSLARTTAMDYWGEGTLVTVSSASTKGPSVFPLAPSSKSTSGGTAALGCLVKDYFPEPVTVSWNSGALTSGVHTFPAVLQSSGLYSLSSVVTVPSSSLGTQTYICNVNHKPSNTKVDKKVEPKSCDKTHTCPPCPAPELLGADSVFLFPPKPKDTLYISRTPEVTCVVVDVSHEDPEVKFNWYVDGVEVHNAKTKPREEQYNSTYRVVSVLTVLHQDWLNGKEYKCKVSNKALPAPIEKTISKAKGQPREPQVYTLPPSRDELTKNQVSLTCLVKGFYPSDIAVEWESNGQPENNYKTTPPVLDSDGSFFLYSKLTVDKSRWQQGNVFSCSVMHEALHYHYTQKSLSLSP light: not shown	138	101	–	–
IL6R-PD080/IL6R-L (antibody, human IgG1, kappa, PD variant; alterations introduced into IL6R-F11) heavy: QVQLQESGPGLVKPSETLSLTCAVSGHSISHDHAWSWVRQPPGEGLEWIGFISYSGITNYNPSLQGRVTISRDNSKNTLYLQMNSLRAEDTAVYYCARSLARTTAMDYWGEGTLVTVSSASTKGPSVFPLAPSSKSTSGGTAALGCLVKDYFPEPVTVSWNSGALTSGVHTFPAVLQSSGLYSLSSVVTVPSSSLGTQTYICNVNHKPSNTKVDKKVEPKSCDKTHTCPPCPAPELLGDDSVFLFPPKPKDTLYISRTPEVTCVVVDVSHEDPEVKFNWYVDGVEVHNAKTKPREEQYNSTYRVVSVLTVLHQDWLNGKEYKCKVSNKALPAPIEKTISKAKGQPREPQVYTLPPSRDELTKNQVSLTCLVKGFYPSDIAVEWESNGQPENNYKTTPPVLDSDGSFFLYSKLTVDKSRWQQGNVFSCSVMHEALHYHYTQKSLSLSP light: not shown	222	127	–	–
IL6R-PD081/IL6R-L (antibody, human IgG1, kappa, PD variant; alterations introduced into IL6R-F11) heavy: QVQLQESGPGLVKPSETLSLTCAVSGHSISHDHAWSWVRQPPGEGLEWIGFISYSGITNYNPSLQGRVTISRDNSKNTLYLQMNSLRAEDTAVYYCARSLARTTAMDYWGEGTLVTVSSASTKGPSVFPLAPSSKSTSGGTAALGCLVKDYFPEPVTVSWNSGALTSGVHTFPAVLQSSGLYSLSSVVTVPSSSLGTQTYICNVNHKPSNTKVDKKVEPKSCDKTHTCPPCPAPELLGEDSVFLFPPKPKDTLYISRTPEVTCVVVDVSHEDPEVKFNWYVDGVEVHNAKTKPREEQYNSTYRVVSVLTVLHQDWLNGKEYKCKVSNKALPAPIEKTISKAKGQPREPQVYTLPPSRDELTKNQVSLTCLVKGFYPSDIAVEWESNGQPENNYKTTPPVLDSDGSFFLYSKLTVDKSRWQQGNVFSCSVMHEALHYHYTQKSLSLSP light: not shown	117	101	–	–
IL6R-PD082/IL6R-L (antibody, human IgG1, kappa, PD variant; alterations introduced into IL6R-F11) heavy: QVQLQESGPGLVKPSETLSLTCAVSGHSISHDHAWSWVRQPPGEGLEWIGFISYSGITNYNPSLQGRVTISRDNSKNTLYLQMNSLRAEDTAVYYCARSLARTTAMDYWGEGTLVTVSSASTKGPSVFPLAPSSKSTSGGTAALGCLVKDYFPEPVTVSWNSGALTSGVHTFPAVLQSSGLYSLSSVVTVPSSSLGTQTYICNVNHKPSNTKVDKKVEPKSCDKTHTCPPCPAPELLGFDSVFLFPPKPKDTLYISRTPEVTCVVVDVSHEDPEVKFNWYVDGVEVHNAKTKPREEQYNSTYRVVSVLTVLHQDWLNGKEYKCKVSNKALPAPIEKTISKAKGQPREPQVYTLPPSRDELTKNQVSLTCLVKGFYPSDIAVEWESNGQPENNYKTTPPVLDSDGSFFLYSKLTVDKSRWQQGNVFSCSVMHEALHYHYTQKSLSLSP light: not shown	380	108	–	–
GpH7-AP001/GpH7-BP061/GpL16-k0 (antibody, human IgG1, kappa, name in EU numbering, Heterodimerized anti-glypican 3 IgG1) heavy 1: QVQLVQSGAEVKKPGASVTVSCKASGYTFTDYEMHWIRQPPGEGLEWIGAIDPKTGDTAYSESFQDRVTLTADKSTSTAYMELSSLTSEDTAVYYCTRFYSYTYWGQGTLVTVSSASTKGPSVFPLAPSSKSTSGGTAALGCLVKDYFPEPVTVSWNSGALTSGVHTFPAVLQSSGLYSLSSVVTVPSSSLGTQTYICNVNHKPSNTKVDKKVEPKSCDKTHTCPPCPAPELLGGDSVFLFPPKPKDTLMISRTPEVTCVVVDVSHEDPEVKFNWYVDGVEVHNAKTKPREEQYNSTYRVVSVLTVLHQDWLNGKEYKCKVSNKALPAPIEKTISKAKGQPREPQVYTLPPSRKELTKNQVSLTCLVKGFYPSDIAVEWESNGQPENNYKTTPPVLDSDGSFFLYSKLTVDKSRWQQGNVFSCSVMHEALHNRYTQKSLSLSP heavy 2: not shown light: DIVMTQSPLSLPVTPGEPASISCQASESLVHSNRNTYLHWYLQKPGQSPQLLIYKVSNRFSGVPDRFSGSGSGTDFTLKISRVEAEDVGVYYCSQNTHVPPTFGQGTKVEIERTVAAPSVFIFPPSDEQLKSGTASVVCLLNNFYPREAKVQWKVDNALQSGNSQESVTEQDSKDSTYSLSSTLTLSKADYEKHKVYACEVTHQGLSSPVTKSFNRGEC	–	–	2.9	80

Now from value to binder:

relative binding activity to FcγRIIaR (IL6R-F652/IL6R-L = 100) [1]	relative binding activity to FcγRIIb (IL6R-F652/IL6R-L = 100) [2]	amount binding to FcgRIIb/amount binding to FcgRIIaR [3]	binding amount to FcgRIIb when that of GpH7-AP001/GpH7-BF648 is defined as 100 [4]	Binder
543	124	–	–	IL6R-PD095/IL6R-L (antibody, human IgG1, kappa, PD variant; alterations introduced into IL6R-F11) heavy: QVQLQESGPGLVKPSETLSLTCAVSGHSISHDHAWSWVRQPPGEGLEWIGFISYSGITNYNPSLQGRVTISRDNSKNTLYLQMNSLRAEDTAVYYCARSLARTTAMDYWGEGTLVTVSSASTKGPSVFPLAPSSKSTSGGTAALGCLVKDYFPEPVTVSWNSGALTSGVHTFPAVLQSSGLYSLSSVVTVPSSSLGTQTYICNVNHKPSNTKVDKKVEPKSCDKTHTCPPCPAPELLGYDSVFLFPPKPKDTLYISRTPEVTCVVVDVSHEDPEVKFNWYVDGVEVHNAKTKPREEQYNSTYRVVSVLTVLHQDWLNGKEYKCKVSNKALPAPIEKTISKAKGQPREPQVYTLPPSRDELTKNQVSLTCLVKGFYPSDIAVEWESNGQPENNYKTTPPVLDSDGSFFLYSKLTVDKSRWQQGNVFSCSVMHEALHYHYTQKSLSLSP light: not shown
844	139	–	–	IL6R-PD097/IL6R-L (antibody, human IgG1, kappa, PD variant; alterations introduced into IL6R-F11) heavy: QVQLQESGPGLVKPSETLSLTCAVSGHSISHDHAWSWVRQPPGEGLEWIGFISYSGITNYNPSLQGRVTISRDNSKNTLYLQMNSLRAEDTAVYYCARSLARTTAMDYWGEGTLVTVSSASTKGPSVFPLAPSSKSTSGGTAALGCLVKDYFPEPVTVSWNSGALTSGVHTFPAVLQSSGLYSLSSVVTVPSSSLGTQTYICNVNHKPSNTKVDKKVEPKSCDKTHTCPPCPAPELLGGDDVFLFPPKPKDTLYISRTPEVTCVVVDVSHEDPEVKFNWYVDGVEVHNAKTKPREEQYNSTYRVVSVLTVLHQDWLNGKEYKCKVSNKALPAPIEKTISKAKGQPREPQVYTLPPSRDELTKNQVSLTCLVKGFYPSDIAVEWESNGQPENNYKTTPPVLDSDGSFFLYSKLTVDKSRWQQGNVFSCSVMHEALHYHYTQKSLSLSP light: not shown
593	122	–	–	IL6R-PD094/IL6R-L (antibody, human IgG1, kappa, PD variant; alterations introduced into IL6R-F11) heavy: QVQLQESGPGLVKPSETLSLTCAVSGHSISHDHAWSWVRQPPGEGLEWIGFISYSGITNYNPSLQGRVTISRDNSKNTLYLQMNSLRAEDTAVYYCARSLARTTAMDYWGEGTLVTVSSASTKGPSVFPLAPSSKSTSGGTAALGCLVKDYFPEPVTVSWNSGALTSGVHTFPAVLQSSGLYSLSSVVTVPSSSLGTQTYICNVNHKPSNTKVDKKVEPKSCDKTHTCPPCPAPELLGWDSVFLFPPKPKDTLYISRTPEVTCVVVDVSHEDPEVKFNWYVDGVEVHNAKTKPREEQYNSTYRVVSVLTVLHQDWLNGKEYKCKVSNKALPAPIEKTISKAKGQPREPQVYTLPPSRDELTKNQVSLTCLVKGFYPSDIAVEWESNGQPENNYKTTPPVLDSDGSFFLYSKLTVDKSRWQQGNVFSCSVMHEALHYHYTQKSLSLSP light: not shown
196	109	–	–	IL6R-PD087/IL6R-L (antibody, human IgG1, kappa, PD variant; alterations introduced into IL6R-F11) heavy: QVQLQESGPGLVKPSETLSLTCAVSGHSISHDHAWSWVRQPPGEGLEWIGFISYSGITNYNPSLQGRVTISRDNSKNTLYLQMNSLRAEDTAVYYCARSLARTTAMDYWGEGTLVTVSSASTKGPSVFPLAPSSKSTSGGTAALGCLVKDYFPEPVTVSWNSGALTSGVHTFPAVLQSSGLYSLSSVVTVPSSSLGTQTYICNVNHKPSNTKVDKKVEPKSCDKTHTCPPCPAPELLGMDSVFLFPPKPKDTLYISRTPEVTCVVVDVSHEDPEVKFNWYVDGVEVHNAKTKPREEQYNSTYRVVSVLTVLHQDWLNGKEYKCKVSNKALPAPIEKTISKAKGQPREPQVYTLPPSRDELTKNQVSLTCLVKGFYPSDIAVEWESNGQPENNYKTTPPVLDSDGSFFLYSKLTVDKSRWQQGNVFSCSVMHEALHYHYTQKSLSLSP light: not shown
268	112	–	–	IL6R-PD086/IL6R-L (antibody, human IgG1, kappa, PD variant; alterations introduced into IL6R-F11) heavy: QVQLQESGPGLVKPSETLSLTCAVSGHSISHDHAWSWVRQPPGEGLEWIGFISYSGITNYNPSLQGRVTISRDNSKNTLYLQMNSLRAEDTAVYYCARSLARTTAMDYWGEGTLVTVSSASTKGPSVFPLAPSSKSTSGGTAALGCLVKDYFPEPVTVSWNSGALTSGVHTFPAVLQSSGLYSLSSVVTVPSSSLGTQTYICNVNHKPSNTKVDKKVEPKSCDKTHTCPPCPAPELLGLDSVFLFPPKPKDTLYISRTPEVTCVVVDVSHEDPEVKFNWYVDGVEVHNAKTKPREEQYNSTYRVVSVLTVLHQDWLNGKEYKCKVSNKALPAPIEKTISKAKGQPREPQVYTLPPSRDELTKNQVSLTCLVKGFYPSDIAVEWESNGQPENNYKTTPPVLDSDGSFFLYSKLTVDKSRWQQGNVFSCSVMHEALHYHYTQKSLSLSP light: not shown
